# ± gives the uncertainty stated by the source.
# Assay: protein stability index of a GFP-peptide fusion (yeast GPS) (PSI 1-4); higher = more stable; sorted into four equal gates, so the index is relative within each strain
# Conditions: pdr5∆
# Outline: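 Plasmids in a pooled yeast library fused tiled 17-residue yeast protein peptides downstream of GFP and also expressed Cherry. Mid-log cultures grown without leucine were sorted into four equal gates by GFP/Cherry fluorescence ratio. Each gate's plasmids were PCR-amplified and Illumina-sequenced, and reads were matched to strains by barcodes. The protein stability index is derived by multiplying each gate's read frequency by its gate number and summing the results.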
row,Sequence,protein stability index
1,SVIPEVDREAMLKPNII [YCG1],3.31 ± 0.14
2,SVRLQRFYQLGVDLKLK [CSN12],3.13 ± 0.23
3,SVRSLQKRIENGGNSVI [SRP68],1.82 ± 0.064
4,SVTAQVYKIALRLTEQK [RPC82],2.19 ± 0.14
5,SVTVSQGNYVTEDIREG [YMR129W/POM152],2.91 ± 0.064
6,SVYGLDDISRQVARTNL [ROX3],2.7 ± 0.059
7,SWNLTGTILSSAGDDGK [YGL100W/SEH1],1.88 ± 0.068
8,SWYLNTFDGIRMSSEEV [GRR1],2.1 ± 0.059
9,SYDFLPLSNIKALLFFN [RPN12],1.96 ± 0.048
10,SYELIKEECQIEDDGII [CSN9],3.01 ± 0.088
11,SYLETLTALGKEKEKER [MED2],1.93 ± 0.12
12,SYQKAWDLLQSGSQNIS [RPN12],1.11 ± 0.084
13,SYQPMYQRPMQVQGQQQ [SSN3],1.71 ± 0.06
14,SYSPTSPSYSPTSPNYS [RPO21],2.96 ± 0.056
15,SYSPTSPSYSPTSPSYS [RPO21],2.66 ± 0.041
16,SYVNYRHMALLVDVMTT [RPO21],1.25 ± 0.049
17,TAEINCFMHLLVQLFLW [RPN3],2.05 ± 0.051
18,TALDAEGAARGTSVYLV [DIS3],1.58 ± 0.082
19,TAPANTTDANGSKENYQ [MED2],2.06 ± 0.058
20,TATAATNGNNAGGGSNK [MED6],3.41 ± 0.085
21,TATGIKVFSLDPQYLVD [ASC1],2.67 ± 0.044
22,TAVATLLKELSKNAQFI [SMC3],2.66 ± 0.052
23,TAVLSTTARAKARAKKT [RPN2],3.17 ± 0.077
24,TCVTCHWNLPGERIFNK [SIR2],2.88 ± 0.11
25,TDANGKTIVTGGNGPED [RPO26],3.28 ± 0.099
26,TDDSFEDKVFASKGRTK [BRN1],2.74 ± 0.099

row,Sequence,protein stability index
1,TDTSTTATAATNGNNAG [MED6],3.06 ± 0.13
2,TEDILKEISTRVFNAKD [YCS4],3.17 ± 0.095
3,TEDVRLAPELNQAIWKR [RPL31B],2.99 ± 0.083
4,TEELSITGEKLDTQLND [SMC1],2.41 ± 0.083
5,TEKEEDAELMADEEEEI [ISW2],3.38 ± 0.13
6,TELKKKLDDLENTKDNL [SMC1],2.94 ± 0.12
7,TELVDKANIFQVIKNEV [SSN2],2.54 ± 0.18
8,TENATENDQQDNEEWMN [LIN1],3.03 ± 0.067
9,TENVAQARIILNHILEK [YGR119C/NUP57],2.87 ± 0.08
10,TEPDKPAFSFNSSVGNK [YJL041W/NSP1],3.3 ± 0.04
11,TEQQIEIPEGVTVSIKS [RPL9B],2.73 ± 0.071
12,TESITHDSSNGLFQVLH [NUT1],3.22 ± 0.061
13,TETLTSKKIVPSPKKVA [SIR4],2.87 ± 0.083
14,TFDGKPTATPSPFRPLE [YMR153W/NUP53],2.15 ± 0.087
15,TFGKPEEEDSILSLEQS [YCS4],3.19 ± 0.074
16,TFLESINGINWRFHTPQ [SIN4],1.86 ± 0.048
17,TFRLPKTLKLARAPKYA [RPL25],1.61 ± 0.072
18,TFSYVDSSLQPEYFESP [YMR129W/POM152],3.07 ± 0.13
19,TGAASNQSSFNFGNNGA [YOR098C/NUP1],2.79 ± 0.099
20,TGAGKGSIGAEVLQGLL [FAS2],3.56 ± 0.063
21,TGALINNLEPRQTTSNT [RPN11],3.25 ± 0.15
22,TGANFDDVERGVSRQIA [REC8],3.63 ± 0.17
23,TGATSLFGSSNNNNNNN [YGL172W/NUP49],2.07 ± 0.038
24,TGEAQVDNSPTTESNSR [YLR335W/NUP2],2.83 ± 0.09
25,TGGLFGAKPAGSTGGLG [YGL172W/NUP49],3.42 ± 0.24
26,TGHSQGLVTAVAIAETD [FAS1],3.44 ± 0.078
